In the supplement of paper PMC9170038:

System: K4 kissing-loop RNA reporter
Assay: apparent KD of K4 kissing-loop reporter; higher = weaker reporter binding
Settings: Eterna round: R107
Method: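 RNA-MaP round R107: designed RNA switches with theophylline, tryptophan, arginine or FMN aptamers are transcribed on-chip within common flanks. They are titrated with a labelled K4 kissing-loop RNA reporter in RNA-MaP buffer (100 mM Tris pH 7.5, 80 mM KCl, 4 mM MgCl2), without ligand or with the indicated ligand. Median apparent KD per design.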

[1] = input ligand: theophylline 20 uM
[2] = input ligand: tryptophan 2.4 mM
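Note: bound reporter read as fluorescence of individual clusters on recovered sequencing chips by microscopy, with normalized cluster intensities fitted with a binding model.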

Sequence | apparent KD of K4 kissing-loop reporter (input ligand: FMN 200 uM) | apparent KD of K4 kissing-loop reporter (input ligand: arginine 13.2 mM) | apparent KD of K4 kissing-loop reporter (input ligand: none) | apparent KD of K4 kissing-loop reporter [1] | apparent KD of K4 kissing-loop reporter [2]
GGGUGGCAGGCGGCCGCCACUCUGAGCAGCCAGUGAGUGAUGUUCGUGGCGGAAGAAUGUUCGUAGAGGACCGGGUUUGUUGUUC [Same State Tryptophan B GF 22] | 472 nM | 245 nM | 297 nM | 432 nM | 337 nM
GGUAGCAUGGCGGCCGCCACUCUUCAUUAGUGAUGUUAAUGCCGAGUGCGCUAACUCCAACUGGAGAGGACCGGGCCAUGCUACC | 182 nM | 122 nM | 288 nM | 440 nM | 76 nM
GGUAGCAUGGCGGCCGCCACUCUUCAUUAGUGAUGUUAAUGCCGAGUGCGCUAACUCCUACGGGAGAGGACCGGGCCAUGCUACC | 1220 nM | 4.43 nM | 25.8 nM | 919 nM | 14.6 nM
GGUAGCAUGGCGGCCGCCACUUCAAGUGGAGUGAUGUUCCACGGCAUCGCGAAAGCGAUGCCUGGAAGGACCGGGCCAUGCUACC | 738 nM | 739 nM | 720 nM | 761 nM | 284 nM
GGUAGCAUGGCGGCCGCCACUUCAUAUGGAGUGAUGUUCCAGCAUCUUAUAAGACUGAGGUGAGGAAGGACCGGGCCAUGCUACC | 635 nM | 561 nM | 577 nM | 615 nM | 189 nM
GGUAUGGAAGCAACAUCACAAGCCGUACCACGAGGACCGGUACGGCCGCCACUCGAUAACUUGCAGUGAUGUUGCAAGUAAGAAU [(T)''-(K)'-(T)'-(T1)-(T2)-(K1)-(K2)_Design6] | 147 nM | 80.5 nM | 133 nM | 117 nM | 68.6 nM
GGUGACAGCCAGGAGUGAUGUAUAGAAUAGCGAGGACCGGUACGGCCGCCACUCGUGAAGAGAAAGGAGUGAUGUUCCGUAAUGG [Kazoo C2] | 224 nM | 178 nM | 193 nM | 308 nM | 57 nM
GGUGCCGGGCAAGGAUAUUAGUCGAGUGAUGUUCGGCGGUCCAAGUCGUUGCGGCGUUAAACCCUUUGAGAAGGUGCCCGGUGCC [#2 Exclusion - FMN B Attempt #1 (HarryS)] | 198 nM | 144 nM | 193 nM | 195 nM | 163 nM
GGUGUUGUUUGUGCUGUUUUCCUCGUUCCUCGAGGACCGGUACGGCCGCCACUCGAGUGAUGUUUGGGUAGCGAUCCUUGUUAGU [Bdazzled - #7 Exc. Tryptophan A] | 336 nM | 226 nM | 341 nM | 264 nM | 441 nM
GGUGUUGUUUGUGCUGUUUUCUUUGUUUCUCGAGGACCGGUACGGCCGCCACUCGAGUGAUGUUUGGGUAGCGAUGUUUGUUAGU [Bdazzled - #2 - Exc. Tryptophan A] | 463 nM | 280 nM | 355 nM | 383 nM | 411 nM
GGUUCUGGUUUGGAGUGAUGUUCUAAGUGGCAGGAUAUGGAGAGAUCCAGAAGGGCCGUUUGUAUCUUUUUUGUGUGGUUUUUUU [Last Minute #2] | 132 nM | 195 nM | 231 nM | 206 nM | 160 nM
GGUUUAUAGGAGGAUACCAGUACGAAUAAAGUACAUUAAUAGUAGAGUGAUGUUCUAAAGUACCCUUGGCAGCUUAGAUUAAGUU [ExTheophylB.H] | 102 nM | 180 nM | 116 nM | 166 nM | 77.9 nM
GUACCAGUGAUGUUGGUAGGCGAGCGGGAUACCAGCCAAGACUCAGGCCCUUGGCAGCCCACAUAUCCCACGUAGGUAGUAGCUC [Same State - Theophylline A (Freestyle 17)] | 96 nM | 103 nM | 105 nM | 110 nM | 92.9 nM
GUACGCUCCCGAGUGAUGUUCGGUAAUCGCUAGGAUAUCGCUUUUGCGAGAAGGAGCGGAAUGAGGAAACUCGUUCUGAGUGUAC [FMN A 26] | 300 nM | 254 nM | 350 nM | 386 nM | 338 nM
GUACGCUCUCGAGUGAUGUUCGAUAAUCGCGAGGAUAUCGCUUUUGCGAGAAGGCGCGGAAUGAGGAAACUCGUUCUGAGUGUAC [FMN A 24] | 603 nM | 390 nM | 1060 nM | 673 nM | 841 nM
GUACGCUCUCGAGUGAUGUUCGGUAAUCGCUAGGAUAUCGCUUUUGCGAGAAGGAGCGGAAUGAGGAAACUCGUUCUGAGUGUAC [FMN A 22] | 452 nM | 295 nM | 447 nM | 325 nM | 476 nM
